Laboratory results published in PMC11787620 (iScience, 2025).

Biological target: the molecule itself
Assay: SEC

B1: LexAPaS125A (full-length P. aeruginosa LexA carrying the S125A mutation in the catalytic dyad) (natural protein, Pseudomonas aeruginosa (ATCC 27853), UniProt P37452 1-204, looked up)
chain: MQKLTPRQAEILSFIKRCLEDHGFPPTRAEIAQELGFKSPNAAEEHLKALARKGAIEMTPGASRGIRIPGFEPHAANDDEGLPVIGRVAAGAPILAEQNIEESCRINPAFFNPRADYLLRVRGMAMKDIGILDGDLLAVHVTREARNGQVVVARIGEEVTVKRFKREGSKVWLLAENPEFAPIEVDLKEQELIIEGLSVGVIRR
stoichiometry N: 2

B2: LexAPa^CTD G91D (LexAPa C-terminal domain, Gly81 to Arg204, with the inactivating G91D mutation on the cleavage site) (domain or fragment, Pseudomonas aeruginosa (ATCC 27853), UniProt P37452 81-204, looked up)
chain: GLPVIGRVAADAPILAEQNIEESCRINPAFFNPRADYLLRVRGMSMKDIGILDGDLLAVHVTREARNGQVVVARIGEEVTVKRFKREGSKVWLLAENPEFAPIEVDLKEQELIIEGLSVGVIRR
stoichiometry N: 2
